Target: the molecule itself
Assay: dynamic light scattering

SLLTEVETPIRNEWGCRCNDSSD [Peptide G37]
binding result: binds

Source: paper doi:10.1101/2022.07.04.498777 (bioRxiv, 2022)
